# Measured values from the nanobody polyreactivity screen of Harvey et al. (2022).
# Experiment: yeast display, Sf9 membrane polyspecificity reagent, FACS + sequencing; frameworks hold sequencing errors
# How it was run: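 A synthetic nanobody library was expressed on Saccharomyces cerevisiae BJ5465 by galactose induction for 36–48 hours. The library was stained for 1 hour at 4 °C with 10% biotinylated, detergent-solubilized Sf9 membrane reagent and enriched with streptavidin microbeads before FACS. Low and high (top ~1%) gates were set on anti-HA fluorescence for expression and streptavidin fluorescence for reagent binding, and each polyreactivity label reflects the gate of origin.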
row,Sequence,polyreactivity (PSR sort gate)
1,QVQLVESGGGLVQAGGSLRISCAASGNILFSYAMGWYRQAPGKERELVAAISRSGGSTYYADSVKGRFTISRDNAKNTVYLQMNSLKPEDTAVYYCNTYSIAYYSPGYDYWGQGTQVTVSS,high polyreactivity
2,QVQLVESGGGLVQAGGSLRISCAASGNSFVSNVMGWYREAPGKERELVAAISSGGRTYYADSVKGRFTISRDNAKNTVYLQMNSLKPEDTAVYYCAASYKSKYLGGGEYWGQGTQVTLSS,high polyreactivity
3,QVQLVESGGGLVQAGGSLRISCAASGNTFTRNTMGWYRQAPGKERELVASISLSGASTYYADSVKGRFTISRDNAKNTVYLQMNSLKPEDTAVYYCAARSRQDLEYDYWGQGTQVTVSS,high polyreactivity
4,QVQLVESGGGLVQAGGSLRISCAASGRIFATNAMGWYRQAPGKERELVAVITGGGDTNYADSVKGRFTISRDNAKNTVYLQMNSLKPEDTAVYYCAAEGSFYRYHVGSDYWGQGTQVTVSS,low polyreactivity
5,QVQLVESGGGLVQAGGSLRISCAASGRIFERNAMRWYRQAPGKERELVAAITYNGGRTYYADSVKGRFTISRDNAKITVYLQMNSLKPEDTAVYNCNAQSRVTRSSYRGSPRYDFWGQGTQVTVSS,high polyreactivity
6,QVQLVESGGGLVQAGGSLRISCAASGRIFFTNAMGWYRQAPGKDRELVAAISKSGARTYYADSVKGRFTISRDNAKNTVYLQMNSLKPEDTAVYYCSEFYYWGQGTQVTVSS,high polyreactivity
7,QVQLVESGGGLVQAGGSLRISCAASGRIFHGNARGWYRPAPGKERELVAAITSGGRTFYADSVKGRFTISRDNAKNTVYLQLHSLKPEDTAVYYCNAPSIAGYAEYNSHDYWGHGTQVTVSS,high polyreactivity
8,QVQLVESGGGLVQAGGSLRISCAASGRIFRGNALGWYRQAPGTERELVAAITRSGGSTYYADSVKGRFTISRDNAKNTVYLQMNSLKPEDTAVYYCAAGYPYYSYLYDYWGQGTQVSVSS,high polyreactivity
9,QVQLVESGGGLVQAGGSLRISCAASGRIFYENTMGWYRQAPGKETELVAVITSTGNTNYADSVKGRFTISRDNAKNTVYLQMNSLKPEVTAVYYCAADSPPGGYVFPERPYDYWGQGTQVTVSS,low polyreactivity
10,QVQLVESGGGLVQAGGSLRISCAASGRIFYYNVMGWYRQAPGKEWELVASISYSSTRTYYADSVKGRFTISRDNGMNTFYLQMNSLKPEDTAVYYCAVDGYSYYSMDYWGQGTQVTVSS,low polyreactivity
11,QVQLVESGGGLVQAGGSLRISCAASGRISVVNAMGWYRQAPGKEREMVAAIRRASTNYADSVKGRFTISRDNAKNTVYLQMNSLKPEDTAVYFCAARVYGINIFEYWGQGTQVTVSS,high polyreactivity
12,QVQLVESGGGLVQAGGSLRISCAASGRNLSVYAMGWYRPAPGKERELVATITGRGGGTYYADSVKGRFTISRDNAKNTVYLQMNRLKPEDTAVYYCAADLVDFWYQITTHYDYWGQGTEVTVSS,low polyreactivity
13,QVQLVESGGGLVQAGGSLRISCAASGRTFADYAMGWSRQEPGKERELVAAISWSGGSTYYADSVKGRFTISCDNAKNTVYLQMNSLKPEDTAVYYSNAVRQRGYDYWGQGTQVTVSS,low polyreactivity
14,QVQLVESGGGLVQAGGSLRISCAASGRTFDRYAMGWYREAPGKERELVAVIRFIGGSTYYADSVKGRFTISRDNAKKTVYLQRNSLIPEDTAVYYCAAEVYDSYFFGYEYWGQGTQVTVSS,low polyreactivity
15,QVQLVESGGGLVQAGGSLRISCAASGRTFGANAMGWYRQAPGKERELVAGITSSGGSTSYADSVKGRFTISRDNAKNTVYLQMNSLKPEDTAVYYCAKDVYQHIFDVILGGYDSWGQGTQVTVSS,low polyreactivity
16,QVQLVESGGGLVQAGGSLRISCAASGRTFGINAMGWYRQAPGKERELVAAISSSGSTYYADSVKGRFTISRDNAKNTVYLQMNSLKPEDTAVYYCAAVAKQWGNTYYYWGQGTQVTVSS,high polyreactivity
17,QVQLVESGGGLVQAGGSLRISCAASGRTFLSYGMGWYRQAPGKERELVATIDDSGSTYYADSVKGRFTISRDNAKNTVYLQMNSLKPEDTAVYYCATDRQVFYWDFWYIEYDYGGQGTQVTVSS,high polyreactivity
18,QVQLVESGGGLVQAGGSLRISCAASGRTFPCKAMGWYRQAPGKERELVATITWSSGRTHYADSVKGRFTISRDNAKNTVYLQMNSLKPEDSAVYYCAAKWIVAVVGFYYWGQGTQVTVSS,low polyreactivity
19,QVQLVESGGGLVQAGGSLRISCAASGRTFSSYAMGWYRQAPGKERELVARISSSGGRTSYADSVKGRFTISRDNAKNTVYLQMNSLKPEDTAVYYCATEWSDRNDYWGQGTQVTVSS,high polyreactivity
20,QVQLVESGGGLVQAGGSLRISCAASGSIFAKNAMGWYRQAPGKERELVAGIDFSGGSTYYADSVKGRFTISRDNAKNTVYLQMNSLKPEDTAVYYCAADWAYKYELDYWGQGTQVTVSS,low polyreactivity
21,QVQLVESGGGLVQAGGSLRISCAASGSIFPHYAMGWYRQSPAKERELVAAISYSGGRTYYADSVKGRFTISRDNAKNTFYLQMNSLKPEDTAVYYCAKTERVLYHGDYWGQGTQVTVSS,low polyreactivity
22,QVQLVESGGGLVQAGGSLRISCAASGSIFQNYAMGGYRQAPGKERELVAAINDDSTYYADSVKGRFTISRDNAKNPVDLQMNSLKPEDTAVYYGNKEFLRRQRVTFWHLGGYWGQGTQVTVSS,low polyreactivity

row,Sequence,polyreactivity (PSR sort gate)
1,QVQLVESGGGLVQAGGSLRISCAASGSIFRINAMGWYRQAHGKEMELVAAITASGDRTYYADSVKGRFTISRDNAKNTVYLQMNSLKPEDTAVFYCAVDSYYPASSLVAFPYAPRYDYWGQGTQVTVSS,low polyreactivity
2,QVQLVESGGGLVQAGGSLRISCAASGSIFRRYAMGWYSQAPGKERDLVATISSVTTTNYADSVKGRFTISRDNANNTVYLQMNSLKPEDTSVFYCAAVVYGQRRGPGQRKSYWGQGTQVTVSS,high polyreactivity
3,QVQLVESGGGLVQAGGSLRISCAASGSIFRYYYMGWYSQAPGKERELVAAITYSGGGTYYADSVKGRFTISRDNAKNTVYLQMNSLKAEDTAVYYCAVRRVGSIYIDRYIYVVSDYFYWGNGTQVTVSS,low polyreactivity
4,QVQLVESGGGLVQAGGSLRISCAASGSIFSDNGMGWYRQAPGKERELVAAITIGGSTNYADSVKGRFTISRDNAKNTVYLLMKRLNPEDTAVYYCNTDFFYYGYNFPYFDYDYWGQGTQVTVSA,low polyreactivity
5,QVQLVESGGGLVQAGGSLRISCAASGSIFTANSMGWYRQAPGKERELVAAITWSGGSTYYADSVKGRFTISRDNAKNTVYLQMNSLKPEDPAVYYCAALPLYLGPKRLGYWGQGTQVTVSS,high polyreactivity
6,QVQLVESGGGLVQAGGSLRISCAASGSIFVHYSMGWYRQAPGKEREFVAAISRGGGTTYYADSVKGRFTISRDNAKNTVYLQMNSLKPEDTAVYYCSARPSTDEGHRQSGLDYWGQGTQVTVSS,high polyreactivity
7,QVQLVESGGGLVQAGGSLRISCAASGSIFYLYTIGWYRQAPGKERELVAAITSGGSTNYADSVKGRFTISRDNAKNTVYLQMNSLKPEDTAVYYCAAEYFDWWVTYDYWGQGTQVTVSS,high polyreactivity
8,QVQLVESGGGLVQAGGSLRISCAASGSIFYPYAMGWYRQAPGKERELVAGITYRAGSTYYADSVKGRFTISRDNAKNTVYLQMNSLKPEDTAVYYCAASESYAFDWGQGTQVTVSS,high polyreactivity
9,QVQLVESGGGLVQAGGSLRISCAASGSIFYRYAMGWYRQAPGKERELVAAIRTRGGTYYADSVKGRFTISRDNAKNTVYLQMNSLKPEDTAVYYCNAVVPGWTAVDYDYWGQGTQVTVSS,high polyreactivity
10,QVQLVESGGGLVQAGGSLRISCAASGSNFSIYAMGWYRQAPGKERELVATNYADSVKGRFTISRDNAKNTVYLQMNSLKPEDTAVDYCAADDLSYFWGDVPGDYWGQGTQVTVSS,low polyreactivity
11,QVQLVESGGGLVQAGGSLRISCAASGSTFDNYAMGSYRHAPGKERELVAVITQSGGITFYADSVKGRFTISRDNSKNTVYLQMNSLKPEDSAVYYCNVELDRSWYYYWGQGTQVTVSS,low polyreactivity
12,QVQLVESGGGLVQAGGSLRISCAASGSTFDYNAMGWDRQAPGKERELVAVISQSGTRTYYADSVKGRFTISRDNAKNTVYLQMNSLKPEDTAVYYCAARSPYSYRYDYWGQGTQVTVSS,high polyreactivity
13,QVQLVESGGGLVQAGGSLRISCAASGSTFGDYTMGWYRQAHGKERELVAAITLTGGSTFYADSVKGRFTISRDNAKNTVYLQMNSLKPVDTAVYYCNTDVIRWVGGTWHRYYYWGQGTQVTVSS,low polyreactivity
14,QVQLVESGGGLVQAGGSLRISCAASGSTFGSYTMGWYRQAPGKERELVAAIRGGGSTYYADSVKGRFTISRDNAKNTVYLQMNSLKPEDTAVYYCAALSPRRYNPRYGFDYCGQGTQVTVSS,high polyreactivity
15,QVQLVESGGGLVQAGGSLRISCAASGSTFGYNDMGWYRQAPGKERELVAAIDTGVSTNYADSVKGRFTISRDNAKNTVYLQMNSLKPEDTAVYYCAKSGSAYWHSGWSVGFDYWGQGTQVTVSS,low polyreactivity
16,QVQLVESGGGLVQAGGSLRISCAASGSTFGYNGMGWYRQAPGKERELVAAISGGARTYADSVKGRFTISRDNAKNTVYLLMNSLKPEDTAVYYCAADSPVSVTADDVFWGQGTQVTVSS,low polyreactivity
17,QVQLVESGGGLVQAGGSLRISCAASGSTFQGNAMGWSRHAPGKERELVAAISRSGGSTYADSVKGRFTISRDNAKNTVYLQMNSLKPEDTAVYYCSADAPFDRPYNYWGQGTQVTVSS,low polyreactivity
18,QVQLVESGGGLVQAGGSLRISCAASGSTFRWYAMGWYRQAPGKEREFVAAITWSGGRTYYADSVKGRFTISRDNAKNTVYLQMNSLKPEDTAVYYGNADDYGDSFNYWGQGTQVTVSS,high polyreactivity
19,QVQLVESGGGLVQAGGSLRISCAASGSTFSLNAMGWYRQAPGKERELVAAISSRGTSTYYADSVKGRFTISRDNAKNTVYLQMNSLKPVDTAVYYCAAGKPKIPDDDYWGQGTQVTVSS,high polyreactivity
20,QVQLVESGGGLVQAGGSLRISCAASGSTFTINVMGWYTQAPGKERELVAAINGGGRTNYADSVKGRFTISRDNAKNTVYLQMNSLIPEDSAVYYCAADGLSIVRQMDYWGLGTQVTVSS,low polyreactivity
21,QVQLVESGGGLVQAGGSLRISCAASGSTFWYYSMGWYRQAPGKERELVAAITRGGNTNYADSVKGRFTISRDNAKNTVYLQMNSLKPEDTAVYYCNADYKLADYREYNVYSFDYWGQGTQVTVSS,low polyreactivity
